Laboratory results taken from patent US20260274952A1.

Biological target: T cell surface antigens CTLA4 and PD-1
Assay: flow cytometry, PHA-stimulated CD4+ T cells, antibody 100 nM (PBS 8.39)

hIgG (control) (antibody) showed an MFI (fluorescence intensity) of 10.2.
